Data: patent publication US20090186337A1 (INSTITUT NATIONAL DE LA RECHERCHE AGRONOMIQUE INRA, published 2009)

How the values were obtained:
[1] = biological target: T1, N protein (nucleocapsid protein) of human RSV Long strain (human RSV Long strain, UniProt P03418 1-391); experiment: coexpression in E. coli, copurification of N with the P fragment
T1 construct: also called native N protein

[2] = biological target: N protein deleted of 27 residues at the C-terminal end (human RSV Long strain, UniProt P03418 1-364); experiment: interaction of truncated N with P (method not detailed)
[3] = biological target: T2, N protein of the measles virus (measles virus strain Edmonston B, UniProt P0DXN6 1-525); experiment: coexpression in E. coli and copurification of N with the P fragment
T2 sequence: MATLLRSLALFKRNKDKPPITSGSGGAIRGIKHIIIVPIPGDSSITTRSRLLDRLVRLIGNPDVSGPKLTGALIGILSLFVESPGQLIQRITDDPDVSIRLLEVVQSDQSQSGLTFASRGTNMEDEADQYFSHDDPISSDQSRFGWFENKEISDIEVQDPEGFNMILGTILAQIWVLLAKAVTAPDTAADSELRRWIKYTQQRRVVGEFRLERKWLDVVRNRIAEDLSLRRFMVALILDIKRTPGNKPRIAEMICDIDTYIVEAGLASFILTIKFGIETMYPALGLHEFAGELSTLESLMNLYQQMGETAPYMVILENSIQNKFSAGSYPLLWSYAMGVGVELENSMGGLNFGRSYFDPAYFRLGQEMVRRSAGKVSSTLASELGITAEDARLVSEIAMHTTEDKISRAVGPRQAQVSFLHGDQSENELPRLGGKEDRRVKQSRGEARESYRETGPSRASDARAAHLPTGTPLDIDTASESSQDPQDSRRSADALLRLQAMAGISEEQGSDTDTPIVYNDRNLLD

B1: protein P (fragment 161-241) fused to GST (other)
chain: SARDGIRDAMVGLREEMIEKIRTEALMTNDRLEAMARLRNEESEKMAKDTSDEVSLNPTSEKLNNLLEGNDSDNDLSLEDF
notes: not shown: GST carrier at the N end (from pGEX-4T-3) and the vector-encoded junction with the thrombin site
binding result [1]: binds

B2: P protein (phosphoprotein) of human RSV Long strain (other)
chain: B1 chain
binding result [2]: no binding

B3: P protein of the measles virus deleted of its N-terminal part as far as residue 456 (inclusive) (other)
chain: GPASRSVIRSIIKSSRLEEDRKRYLMTLLDDIKGANDLAKFHQMLMKIIMK
notes: also called PΔ457N
binding result [3]: no binding
